Results published in paper PMC2699623 (Structure (London, England : 1993), 2009).

Assays:
[1] = molecular target: peptide derived from EIAV Gag p9 (equine infectious anemia virus (EIAV)); assay: ITC
[2] = molecular target: ALIX_(Bro1-V), ALIX lacking the proline rich domain (monomeric form); assay: SEC-MALS
[3] = molecular target: ALIXV, the middle domain (V-domain) of ALIX (monomeric form) (UniProt Q8WUM4); assay: SEC-MALS
SEC-MALS = molecular target: the molecule itself; assay: SEC-MALS

dimeric ALIXV (from UniProt Q8WUM4 360-702) (complex)
Kd [1]: 8 µM

ALIX_(Bro1-V), ALIX lacking the proline rich domain (monomeric form) (domain or fragment)
stoichiometry N [2]: 2

ALIXV, the middle domain (V-domain) of ALIX (monomeric form) (from UniProt Q8WUM4 360-702) (domain or fragment)
stoichiometry N [3]: 2

B1: ALIX_(Vmut2) (domain or fragment)
chain: PVSVQQSLAAYNQRKADLVNRSIAQMREATTLANGVLASLNLPAAIEDVSGDTVPQSILTKSRSVIEQGGIQTVDQLIKELPELLQRNREILDESLRLLDEEEATDNDLRAKFKERWQRTPSNELYKPLRAEGTNFRTVLDKAVQADGQVKECYQSHRDTIVLLCKPEPELNAAIPSANPAKTMQGSEVVNVLKSLLSNLDEVKKEREGLENDLKSVNFDMTSKFLTALAQDGVINEEALSVTELDRVYGGLTTKVQESLKKQEGLLKNIQVSHQEFSKMKQSYKKANLREEVLKNLATAYDNFVELVANLKEGTKFYNELTEILVRFQNKCSDIVFARKTER
stoichiometry N (SEC-MALS): 2
